# Test results: patent US20090233868
# Experiments:
# [1] = molecular target: T1, LaR2C peptide (24-mer, La 174-197) (Homo sapiens) (UniProt P05455); assay: inhibition; conditions: inhibition of HCV IRES translation in rabbit reticulocyte lysate
# T1 sequence: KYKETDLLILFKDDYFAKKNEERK
# [2] = system: T2, LaR2C-N7 (La 174-180) (Homo sapiens); assay: inhibition; conditions: inhibition of HCV IRES translation in rabbit reticulocyte lysate; rescued by La
# T2 sequence: KYKETDL
substance,measurement,setting,value
HCV IRES-luciferase monocistronic RNA (uncapped),IC50,[1],30 µM
same,IC50,[2],40 µM
